Experimental data from PMC8964759, “Exploring a blue-light-sensing transcription factor to double the peak productivity of oil in Nannochloropsis oceanica”.

T1: MBP-NobZIP77 (Nannochloropsis oceanica, UniProt A0A8F2IEU3 1-466)
T1 sequence: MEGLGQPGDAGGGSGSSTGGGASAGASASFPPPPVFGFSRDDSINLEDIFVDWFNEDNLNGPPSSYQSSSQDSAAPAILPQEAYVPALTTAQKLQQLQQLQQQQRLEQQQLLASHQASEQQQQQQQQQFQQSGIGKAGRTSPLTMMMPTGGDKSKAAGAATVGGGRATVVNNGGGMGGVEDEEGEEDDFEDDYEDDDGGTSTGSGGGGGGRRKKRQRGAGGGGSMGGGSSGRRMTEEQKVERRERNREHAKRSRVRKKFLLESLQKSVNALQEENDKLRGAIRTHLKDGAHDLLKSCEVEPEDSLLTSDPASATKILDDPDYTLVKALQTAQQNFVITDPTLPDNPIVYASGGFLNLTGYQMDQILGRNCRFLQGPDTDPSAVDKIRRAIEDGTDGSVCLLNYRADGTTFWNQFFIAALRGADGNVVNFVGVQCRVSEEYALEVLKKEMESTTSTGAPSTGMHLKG

B1: g4867 (hsp70) control probe (dsDNA)
DNA 1: TGTGGGGCCTCAGATAAAGGTGCGGCACGTAGGGAGAGACATTG
DNA 2: CAATGTCTCTCCCTACGTGCCGCACCTTTATCTGAGGCCCCACA
B2: g10411 (lipase; also written g10041) promoter probe (dsDNA)
DNA 1: TCCAACACGTCGGCCTCCCAAACGCAATTTTGAGGCATGGACGTGGAAAGGG
DNA 2: CCCTTTCCACGTCCATGCCTCAAAATTGCGTTTGGGAGGCCGACGTGTTGGA
B3: g5641 (FAE) promoter probe (dsDNA)
DNA 1: TGGATTGATGGACGTGGAAGCAGCTGGATTGATGGACGTGGAAGCAGC
DNA 2: GCTGCTTCCACGTCCATCAATCCAGCTGCTTCCACGTCCATCAATCCA
B4: g9477 (actin) control probe (dsDNA)
DNA 1: TTCGATAAATGGGGCCGATAAGTGAGGGAAGATGATTTGAGTAAAGTA
DNA 2: TACTTTACTCAAATCATCTTCCCTCACTTATCGGCCCCATTTATCGAA
B5: g2171 (PAP) promoter probe (dsDNA)
DNA 1: ACCGCTCCTTACGTGGTTAACATCACCGCTCCTTACGTGGTTAACATC
DNA 2: GATGTTAACCACGTAAGGAGCGGTGATGTTAACCACGTAAGGAGCGGT
B6: g3857 (TAG-lipase) promoter probe (dsDNA)
DNA 1: TGGGCTCGGACGCGACGCGGGCTTTGGGCTCGGACGCGACGCGGGCTT
DNA 2: AAGCCCGCGTCGCGTCCGAGCCCAAAGCCCGCGTCGCGTCCGAGCCCA

Tests used:
[1] = target: T1, MBP-NobZIP77; test: EMSA; LightShift Chemiluminescent EMSA kit binding buffer (composition, salt and pH not stated), 30 min; light series: 5 nM probe, 25 °C, 60 min, NobZIP77 1:2 dilutions from 24 mM (so in the source); 6% native PAGE at 4 °C; settings: protein: recombinant; tags: MBP (pMAL-p4X); chain copies: 2; label: 5' biotin; blunt
[2] = target: T1, MBP-NobZIP77; test: EMSA; shift reduced by 100-fold unlabeled promoter DNA; LightShift Chemiluminescent EMSA kit binding buffer (composition, salt and pH not stated), 30 min; light series: 5 nM probe, 25 °C, 60 min, NobZIP77 1:2 dilutions from 24 mM (so in the source); 6% native PAGE at 4 °C; settings: protein: recombinant; tags: MBP (pMAL-p4X); chain copies: 2; label: 5' biotin; blunt

| Binder | binding result [1] | binding result [2] |
| --- | --- | --- |
| B1 | no binding |  |
| B2 |  | binds |
| B3 | binds |  |
| B4 | no binding |  |
| B5 | binds |  |
| B6 |  | binds |
